Laboratory results published in US20240101668A1 (WUGEN, published 2024).
Substitutions are numbered along the chain they refer to.

B1: Polypeptide No. 260 (scFv, V domains shown)
VH: QVQLVQSGAEVKKPGASVKVSCKASGYTFTNYYVHWVRQAPGQGLEWMGMINPSGGSTNYAQKFQGRVTMTRDTSTSTVYMELSSLRSEDTAVYYCARVSGWKRGWFDPWGQGTLVTVSS
VL: DIQMTQSPSSLSASVGDRVTITCRSSQSISTYLNWYQQKPGKAPKLLIYGASNLQSGVPSRFSGSGSGTDFTLTISSLQPEDFATYYCQQVISYPITFGGGTKVEIKR
notes: scFv
B2: Polypeptide No. 241 (scFv, V domains shown)
VH: QVQLVQSGAEVKKPGASVKVSCKASGYTFTRHYVHWVRQAPGQGLEWMGIINPSGGSTSYAQKFQGRVTMTRDTSTSTVYMELSSLRSEDTAVYYCARSYHHYYYGMDVWGQGTTVTVSS
VL: DIQMTQSPSSLSASVGDRVTITCRASQSISNYLAWYQQKPGKAPKLLIYAASSLQGGVPSRFSGSGSGTDFTLTISSLQPEDFATYYCQQSYSTPWTFGQGTKVEIKR
notes: scFv
B3: Polypeptide No. 257 (scFv, V domains shown)
VH: B2 VH with R31N, H32Y, Y33F, V34M, S99A, Y100H, H101T, H102V, T115M
VL: B2 VL with N31S, Y32W, S53T, G56S, V104L
notes: scFv
B4: Polypeptide No. 248 (scFv, V domains shown)
VH: QVQLVQSGAEVKKPGASVKVSCKASGYTFTGYYMHWVRQAPGQGLEWMGVINPNGGSISYAQKFQGRVTMTRDTSTSTVYMELSSLRSEDTAVYYCAREGWFGEDGMDVWGQGTTVTVSS
VL: B2 VL with S28D, I29L, S30D, N31R, G56T, S91Y, W96Y, V104L
notes: scFv
B5: Polypeptide No. 244 (scFv, V domains shown)
VH: QVQLVQSGAEVKKPGASVKVSCKASGYTFTSYYMHWVRQAPGQGLEWMGRINPSGGSTSYAQSFQGRVTMTRDTSTSTVYMELSSLRSEDTAVYYCARVPGLYGGAIDYWGQGTLVTVSS
VL: B2 VL with S28D, S30R, Y32D, A34G, G56S, T94S, W96F
notes: scFv
B6: Polypeptide No. 249 (scFv, V domains shown)
VH: QVQLVQSGAEVKKPGASVKVSCKASGYTFTSDGISWVRQAPGQGLEWMGWMNPNSGNAGYAQKFQGRVTMTRDTSTSTVYMELSSLRSEDTAVYYCATAVAGTDAFDIWGQGTMVTVSS
VL: EIVMTQSPATLSVSPGERATLSCRASQSIGNNLKAWYQQKPGQAPRLLIYDTSAHTTGIPARFSGSGSGTEFTLTISSLQSEDFAVYYCQHYGNSLTFGQGTKVEIK
notes: scFv
B7: Polypeptide No. 256 (scFv, V domains shown)
VH: QVQLVQSGAEVKKPGASVKVSCKASGYTFATYYLHWVRQAPGQGLEWMGMINPSGGSTIYAQKFQGRVTMTRDTSTSTVYMELSSLRSEDTAVYYCARSSGYDFFDYWGQGTLVTVSS
VL: DIQMTQSPSSLSASVGDRVTITCRASHDINNYLNWYQQKPGKAPKLLIYDASNLETGVPSRFSGSGSGTDFTLTISSLQPEDFATYYCQQADSFPLTFGGGTKVEIKR
notes: scFv
B8: Polypeptide No. 253 (scFv, V domains shown)
VH: QVQLVQSGAEVKKPGSSVKVSCKASGYTFTTYFMHWVRQAPGQGLEWMGGIVPVFGTTKYAQKFQGRVTITADESTSTAYMELSSLRSEDTAVYYCASSAVGWFDPWGQGTLVTVSS
VL: DIQMTQSPSSLSASVGDRVTITCRASQDISRWLAWYQQKPGKAPKLLIYAASSLQSGVPSRFSGSGSGTDFTLTISSLQPEDFATYYCQQYDNFPLTFGGGTKLEIKR
notes: scFv
B9: Polypeptide No. 240 (scFv, V domains shown)
VH: QVQLVQSGAEVKKPGASVKVSCKASGYTFTSYYMHWVRQAPGQGLEWMGIINPSSGSTTYALKFQGRVTMTRDTSTSTVYMELSSLRSEDTAVYYCARGLGKSAIDYWGQGTLVTVSS
VL: not shown
notes: scFv
B10: Polypeptide No. 243 (scFv, V domains shown)
VH: QVQLVQSGAEVKKPGSSVKVSCKASGGTFSSHAFNWVRQAPGQGLEWMGGISPMFGTPNYAQKFQGRVTITADESTSTAYMELSSLRSEDTAVYYCARAPDYGDDWYFDLWGRGTLVTVSS
VL: EIVMTQSPATLSVSPGERATLSCRASQTLTGGLLAWYQQKPGQAPRLLIYDTSSRAAGIPARFSGSGSGTEFTLTISSLQSEDFAVYYCHHYGSSPYTFGQGTKVEIKR
notes: scFv
B11: Polypeptide No. 265 (scFv, V domains shown)
VH: QVQLVQSGAEVKKPGSSVKVSCKASGHTFTSDYMHWVRQAPGQGLEWMGRIIPIFGTADYAQKFQGRVTITADESTSTAYMELSSLRSEDTAVYYCARDDSSGIFDYWGQGTLVTVSS
VL: B10 VL with T28S, L29V, T30N, G31S, G32E, L33H, A57T, H90Q, H91Q, Y97V
notes: scFv
B12: Polypeptide No. 259 (scFv, V domains shown)
VH: QVQLVQSGAEVKKPGSSVKVSCKASGYTFTSSEINWVRQAPGQGLEWMGGIHPMFGTTNYAQKFQGRVTITADESTSTAYMELSSLRSEDTAVYYCARARLMVYAPSDYWGQGTLVTVSS
VL: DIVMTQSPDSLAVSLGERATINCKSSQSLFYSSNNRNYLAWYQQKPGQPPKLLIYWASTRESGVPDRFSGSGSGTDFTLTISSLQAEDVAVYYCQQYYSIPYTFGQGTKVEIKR
notes: scFv
B13: Polypeptide No. 246 (scFv, V domains shown)
VH: QVQLVQSGAEVKKPGSSVKVSCKASGGTFTSYFMHWVRQAPGQGLEWMGGIIPMFGAPVYAQDFQGRVTITADESTSTAYMELSSLRSEDTAVYYCAAGLDFWSGPDNYYMDVWGKGTTVTVSS
VL: DIQMTQSPSSLSASVGDRVTITCQATQDISNYLNWYQQKPGKAPKLLIYGASNLPSGVPSRFSGSGSGTDFTLTISSLQPEDFATYYCQQSYSDLLTFGPGTKVDIKR
notes: scFv
B14: Polypeptide No. 247 (scFv, V domains shown)
VH: QVQLVQSGAEVKKPGASVKVSCKASGGTLMSYAISWVRQAPGQGLEWMGIINPRGGTTRYAQKFQGRVTMTRDTSTSTVYMELSSLRSEDTAVYYCARSEDSGYDYLDYWGQGTLVTVSS
VL: EIVMTQSPATLSVSPGERATLSCRGSQSISGNYLAWYQQKPGQAPRLLIYDTSARAAGIPARFSGSGSGTEFTLTISSLQSEDFAVYYCQQYNSYPLTFGGGTKVEIKR
notes: scFv
B15: Polypeptide No. 262 (scFv, V domains shown)
VH: QVQLVQSGAEVKKPGASVKVSCKASGFTFSDYGYYMHWVRQAPGQGLEWMGWMDPSSGHTGYAQRFQGRVTMTRDTSTSTVYMELSSLRSEDTAVYYCAKDIGWGAFDIWGQGTTVTVSS
VL: B14 VL with G25A, S28R, I29V, S30G, G31N, N32T, T52V, A57S, N93L, Y95P
notes: scFv
B16: Polypeptide No. 235 (scFv, V domains shown)
VH: QVQLVQSGAEVKKPGASVKVSCKASGYTFTGYYMHWVRQAPGQGLEWMGIINPSGGSTSYAQKFQGRVTMTRDTSTSTVYMELSSLRSEDTAVYYCARDPGRLGELDYWGQGTLVTVSS
VL: EIVMTQSPATLSVSPGERATLSCRASQSVSSNLAWYQQKPGQAPRLLIYGASTRATGIPARFSGSGSGTEFTLTISSLQSEDFAVYYCQQYGSSPLTFGGGTKVEIKR
notes: scFv
B17: Polypeptide No. 238 (scFv, V domains shown)
VH: QVQLVQSGAEVKKPGASVKVSCKASGYTFTIYYMHWVRQAPGQGLEWMGIINPSGGSTVYAQTFQGRVTMTRDTSTSTVYMELSSLRSEDTAVYYCARGIGSKGAFDIWGQGTMVTVSS
VL: not shown
notes: scFv
B18: Polypeptide No. 291 (scFv, V domains shown)
VH: B17 VH with I31S
VL: not shown
notes: scFv
B19: Polypeptide No. 254 (scFv, V domains shown)
VH: QVQLVQSGAEVKKPGASVKVSCKASGYTFTSHYMHWVRQAPGQGLEWMGWISPYNGNTNYAQKLQGRVTMTRDTSTSTVYMELSSLRSEDTAVYYCARGESNSGWINFDYWGQGTLVTVSS
VL: EIVMTQSPATLSVSPGERATLSCRASQSVSSSSLAWYQQKPGQAPRLLIYDTSTRATGIPARFSGSGSGTEFTLTISSLQSEDFAVYYCQQYGTSPITFGQGTRLEIKR
notes: scFv
B20: Polypeptide No. 242 (scFv, V domains shown)
VH: QVQLVQSGAEVKKPGSSVKVSCKASGGTFSSATISWVRQAPGQGLEWMGGIIPMFGTANYAQKFQGRVTITADESTSTAYMELSSLRSEDTAVYYCARDAYGDSTWGQGTLVTVSS
VL: EIVMTQSPATLSVSPGERATLSCRASESVSSALAWYQQKPGQAPRLLIYGASTRATGIPARFSGSGSGTEFTLTISSLQSEDFAVYYCQQYGNSVTFGGGTKVEIKR
notes: scFv

target: T1, huFLT3-T227 stably expressed on Ramos cells (human, UniProt P36888 27-993); test: FACS on cells
T1 construct: whole, on cells; also called FLT3 WT

Binder	FACS geometric mean fold change over Jurkat parental
B1	> 30 fold
B2	10 to 30 fold
B3	10 to 30 fold
B4	2 to 10 fold
B5	> 30 fold
B6	2 to 10 fold
B7	> 30 fold
B8	2 to 10 fold
B9	> 30 fold
B10	2 to 10 fold
B11	10 to 30 fold
B12	10 to 30 fold
B13	10 to 30 fold
B14	2 to 10 fold
B15	10 to 30 fold
B16	> 30 fold
B17	> 30 fold
B18	> 30 fold
B19	10 to 30 fold
B20	> 30 fold

target: T2, huFLT3-M227 stably expressed on Ramos cells (human, UniProt P36888 27-993); test: FACS on cells
T2 construct: whole, on cells; also called FLT3 Mutant

Binder	FACS geometric mean fold change over Jurkat parental
B1	> 30 fold
B2	10 to 30 fold
B3	10 to 30 fold
B4	2 to 10 fold
B5	> 30 fold
B6	2 to 10 fold
B7	> 30 fold
B8	2 to 10 fold
B9	> 30 fold
B10	2 to 10 fold
B11	10 to 30 fold
B12	10 to 30 fold
B13	2 to 10 fold
B14	2 to 10 fold
B15	10 to 30 fold
B16	> 30 fold
B17	> 30 fold
B18	> 30 fold
B19	2 to 10 fold
B20	> 30 fold
